# Laboratory results: article PMC7948467, “Discovery of an ultraspecific triuret hydrolase (TrtA) establishes the triuret biodegradation pathway” (The Journal of Biological Chemistry, 2020)
# B1: TrtA (Herbaspirillum sp. BH-1) (protein)
# chain: MIRIDATPYPYQFHPRSTALVVIDMQRDFIEEGGFGSALGNDVRPLAAIVPTVAALLQLAREAGMLVVHTRESHLPDLSDCPRSKRLRGNPTLGIGDVGPMGRILVQGEPGNQILPQLAPVEGELVIDKPGKGAFYATDLHAQLQERRITHLLVAGVTTEVCVQTSMREANDRGYECLVIEDACASYFPDFHRITLEMLTAQGGIVGWRTPLAQLQAGVAAYTGENP
# notes: N-terminal 6xHis tag and thrombin site kept, pET28a, E. coli BL21(DE3), codon-optimized; subunit 24 kDa, homodimer
# B2: TrtA +Cleaved His-tag (Herbaspirillum sp. BH-1) (protein)
# chain: B1 chain
# notes: N-terminal 6xHis tag cut by thrombin, E. coli BL21(DE3); homodimer ~48 kDa; crystal rows placed here, but may be the C-terminal deletion construct
# Substrate: NC(=O)NC(=O)NC(N)=O
# Assay: ammonia release, Berthelot assay
# Format: biochemical, Herbaspirillum sp. BH-1
# Conditions: phosphate buffer
# [1] = pH 6.5 (optimum), 25 °C, His-tag kept
Protein,Km [1] [µM],kcat [1] [s⁻¹],kcat/Km [1] [M⁻¹ s⁻¹],"Km (pH 8, 25 °C) [µM]","kcat (pH 8, 25 °C) [s⁻¹]","kcat/Km (pH 8, 25 °C) [M⁻¹ s⁻¹]"
B1,21 ± 3,11 ± 1,530000 ± 100000,,,
B2,,,,15 ± 3,8.8 ± 0.4,610000 ± 160000
